Results on 2 substances are retold here after article PMC7887190.

The target of the experiment is YB1 (UniProt P67809). Briefly: reciprocal co-IP (anti-YB1, anti-WAVE3), blot.

On to “WAVE3 proline-rich domain (PRD) (from UniProt Q9UPY6) PRD-DM (Y248F/Y337F)”, for which the “binding against the reference” value (reference: PRD-WT (GFP fusion), sites Y248,Y337) is recorded as “weaker”.
For the substance WAVE3 (from UniProt Q9UPY6) W3-Y4F, the “binding against the reference” value (reference: wild-type WAVE3 (W3-WT), sites Y151,Y248,Y337,Y486) is “lost”.
